These results are taken from JP2008512352A (dated 2008).

In one assay the target is EGFR (腫瘍細胞上) (UniProt P00533 25-1210, limits assumed). In words: cell-based or functional assay.
The target of the next assay is T1, ヒトEGFR (プレート被覆) (human, UniProt P00533 25-645).
T1 construct: extracellular domain; 'Extracellular domain' in the legend is read as applying to both EGFR and IGFR; also called 固定化EGFR
As to the kind of experiment: direct binding ELISA on immobilised EGFR (ED50: antibody concentration giving 50% of maximal binding). On the technique in general: ELISA stands for enzyme-linked immunosorbent assay.

In the next assay the target is T2, IGFR 細胞外ドメイン (プレート被覆) (human, UniProt P08069 31-935).
T2 construct: extracellular domain; 'ヒト' in the legend is read as applying to both EGFR and IGFR; also called 固定化IGFR; IGF-IR
In words: direct binding ELISA on immobilised IGFR (ED50: antibody concentration giving 50% of maximal binding).

Values joined by “and” are separate entries in the source; they are usually repeats but may differ in a detail not shown here. Equal values may be shown once.

B1: IMC-11F8 (antibody, V domains shown)
VH: QVQLQESGPGLVKPSQTLSLTCTVSGGSISSGDYYWSWIRQPPGKGLEWIGYIYYSGSTDYNPSLKSRVTMSVDTSKNQFSLKVNSVTAADTAVYYCARVSIFGVGTFDYWGQGTLVTVSS
VL: EIVMTQSPATLSLSPGERATLSCRASQSVSSYLAWYQQKPGQAPRLLIYDASNRATGIPARFSGSGSGTDFTLTISSLEPEDFAVYYCHQYGSTPLTFGGGTKAEIK
B1: the “DiFi細胞の増殖阻害 IC50 (MTT)” value in the assay with EGFR (腫瘍細胞上) was roughly 1 nM.

B2: 抗-EGFR/抗-IGFR ジ-ダイアボディ (bispecific antibody)
chain 1: B1 VH
chain 2: B1 VL
chain 3: EVQLVQSGAEVKKPGSSVKVSCKASGGTFSSYAISWVRQAPGQGLEWMGGIIPIFGTANYAQKFQGRVTITADKSTSTAYMELSSLRSEDTAVYYCARAPLRFLEWSTQDHYYYYYMDVWGKGTTVTVSS
chain 4: SSELTQDPAVSVALGQTVRITCQGDSLRSYYASWYQQKPGQAPVLVIYGKNNRPSGIPDRFSGSSSGNTASLTITGAQAEDEADYYCNSRDNSDNRLIFGGGTKLTVL
In the case of B2, in the assay with EGFR (腫瘍細胞上), the “DiFi細胞の増殖阻害 IC50 (MTT)” value is 25 nM. In addition, the EC50 (usually the midpoint of the concentration-response curve) is 0.1 nM and 0.2 nM with ヒトEGFR (プレート被覆); 0.25 nM and 0.5 nM with IGFR 細胞外ドメイン (プレート被覆).

B3: IMC-A12 (antibody, V domains shown)
VH: B2 chain 3
VL: B2 chain 4
Regarding B3, in the assay with IGFR 細胞外ドメイン (プレート被覆), the EC50 was found to be 0.1 nM.
